Key:
[1] = target: the ribosome (40S + 60S subunits) (human (endogenous in HeLa)) (UniProt P62753); test: co-sedimentation; puromycin-treated crude ribosomal preparation resolved by sucrose-gradient centrifugation; ribosome fractions combined for western blot (Supplementary Fig. S1)
[2] = target: 60S ribosomal subunit (human (endogenous in HeLa)) (UniProt P40429); test: co-sedimentation; ribosome fractions from HeLa cells, first and second 10-40% sucrose gradient, 20 mM Tris-HCl pH 7.5, 500 mM KCl, 4 mM magnesium acetate, 2 mM DTT, 4 °C; fractions and the purified subunits blotted for PABP, without GST-Paip2 treatment
[3] = target: 40S ribosomal subunit (human (endogenous in HeLa)) (UniProt P62753); test: as above

poly(A)-binding protein (PABP), endogenous in HeLa ribosome preparations (from UniProt P11940 1-636) (natural protein)
molar ratio of PABP to the ribosome (40S + 60S subunits) (western blot) [1]: 2
molar ratio of subunit to PABP in the purified subunit (western blot) [2]: 10
molar ratio of subunit to PABP in the purified subunit (western blot) [3]: 10

— paper PMC6261967
